From article PMC5567343, “Flow-induced elongation of von Willebrand factor precedes tension-dependent activation” (Nature Communications, 2017)

Key:
Settings in all cases: both partners purified
[1] = molecular target: T1, Recombinant human von Willebrand factor concatemers, labeled with biotin and Alexa Fluor 488 (human, UniProt P04275 764-2813, biotin (~0.3 per monomer, from Sulfo-NHS-LC-Biotin); Alexa Fluor 488 (0.67 fluorophore/monomer)); experiment: two-colour single-molecule TIRF imaging under flow; as a1; 150 mM NaCl; combined fit of the two highest force bins, tension 40-56 pN, where activation by force is maximal; apparent kon and koff, KD = koff/kon
T1 construct: Disulfide-linked concatemers of varying length; held on the flow-chamber wall through biotin and Traptavidin; also called VWF; VWF concatemer; source: Chinese hamster ovary cells, furin-treated, purified to >99% (Baxter BioScience); labeled, Sepharose CL-2B gel filtration, fraction 1; copies: ~20-200

[2] = molecular target: T1, Recombinant human von Willebrand factor …; experiment: two-colour single-molecule TIRF imaging under flow; as a1 but 10 mM NaCl; VWF regions at average tension 44 ± 2.3 pN; apparent kon and koff, KD = koff/kon
[3] = molecular target: T1, Recombinant human von Willebrand factor …; experiment: two-colour single-molecule TIRF imaging under flow; as a1 but 10 mM NaCl; VWF regions at average tension 36 ± 2.3 pN; apparent kon and koff, KD = koff/kon
[4] = molecular target: T1, Recombinant human von Willebrand factor …; experiment: two-colour single-molecule TIRF imaging under flow; as a1 but 10 mM NaCl; VWF regions at average tension 12 ± 2.2 pN; apparent kon and koff, KD = koff/kon
[5] = molecular target: T1, Recombinant human von Willebrand factor …; experiment: two-colour single-molecule TIRF imaging under flow; as a1; 150 mM NaCl; VWF regions at average tension 36 ± 2.3 pN; apparent kon and koff, KD = koff/kon
[6] = molecular target: T1, Recombinant human von Willebrand factor …; experiment: two-colour single-molecule TIRF imaging under flow; as a1; 150 mM NaCl; VWF regions at average tension 20 ± 2.3 pN; apparent kon and koff, KD = koff/kon
[7] = molecular target: T1, Recombinant human von Willebrand factor …; experiment: two-colour single-molecule TIRF imaging under flow; as a1 but 10 mM NaCl; combined fit of the two highest force bins, tension 40-56 pN; apparent kon and koff, KD = koff/kon
[8] = molecular target: T1, Recombinant human von Willebrand factor …; experiment: two-colour single-molecule TIRF imaging under flow; as a1 but 10 mM NaCl; VWF regions at average tension 28 ± 2.3 pN; apparent kon and koff, KD = koff/kon
[9] = molecular target: T1, Recombinant human von Willebrand factor …; experiment: two-colour single-molecule TIRF imaging under flow; as a1; 150 mM NaCl; VWF regions at average tension 52 ± 2.3 pN; apparent kon and koff, KD = koff/kon
[10] = molecular target: T1, Recombinant human von Willebrand factor …; experiment: two-colour single-molecule TIRF imaging under flow; as a1 but 10 mM NaCl; VWF regions at average tension 20 ± 2.3 pN; apparent kon and koff, KD = koff/kon
[11] = molecular target: T1, Recombinant human von Willebrand factor …; experiment: two-colour single-molecule TIRF imaging under flow; biotin/Alexa 488-VWF tethered to Traptavidin on the chamber wall, Alexa 647-GPIbα in solution at five concentrations; association kinetics after shift from 0 to 1280 dyn cm^-2; 150 mM NaCl, 20 mM HEPES pH 7.4, 0.02% Tween 20; VWF regions at average tension 12 ± 2.2 pN; apparent kon and koff, 1:1 fit, KD = koff/kon
[12] = molecular target: T1, Recombinant human von Willebrand factor …; experiment: two-colour single-molecule TIRF imaging under flow; as a1; 150 mM NaCl; VWF regions at average tension 28 ± 2.3 pN; apparent kon and koff, KD = koff/kon
[13] = molecular target: T1, Recombinant human von Willebrand factor …; experiment: two-colour single-molecule TIRF imaging under flow; dissociation of GPIbα after flow cessation from 1280 to 0 dyn cm^-2, 57 fps, 20 concatemers, three flow cycles each; 100 nM GPIbα, 150 mM NaCl
[14] = molecular target: T1, Recombinant human von Willebrand factor …; experiment: two-colour single-molecule TIRF imaging under flow; as a1 but 10 mM NaCl; VWF regions at average tension 52 ± 2.3 pN; apparent kon and koff, KD = koff/kon
[15] = molecular target: T1, Recombinant human von Willebrand factor …; experiment: two-colour single-molecule TIRF imaging under flow; as a1; 150 mM NaCl; VWF regions at average tension 44 ± 2.3 pN; apparent kon and koff, KD = koff/kon

B1: Wild-type human platelet GPIbα (His1 to Arg290), Alexa Fluor 647-labeled (domain or fragment, UniProt P07359 17-306, looked up)
chain: HPICEVSKVASHLEVNCDKRNLTALPPDLPKDTTILHLSENLLYTFSLATLMPYTRLTQLNLDRCELTKLQVDGTLPVLGTLDLSHNQLQSLPLLGQTLPALTVLDVSFNRLTSLPLGALRGLGELQELYLKGNELKTLPPGLLTPTPKLEKLSLANNNLTELPAGLLNGLENLDTLLLQENSLYTIPKGFFGSHLLPFAFLHGNPWLCNCEILYFRRWLQDNAENVYVWKQGVDVKAMTSNVASVQCDNSDKFPVYKYPGKGCPTLGDEGDTDLYDYYPEEDTEGDKVR
modifications: Alexa Fluor 647 (NHS ester; fluorophore:GPIbα 1.01:1)
notes: platelet glycoprotein Ib alpha chain, human, wild type, His1 to Arg290; also called GPIα-Alexa Fluor 647; source: HEK293T, transiently transfected, culture supernatant, purified (Ni-NTA, Superdex 200 SEC)
Kd [1]: 78 nM
koff [1]: 3.9 s⁻¹
kon [1]: 5e+07 M⁻¹ s⁻¹
Kd [2]: 0.6 nM
koff [2]: 0.3 s⁻¹
kon [2]: 5.38e+08 M⁻¹ s⁻¹
Kd [3]: 0.8 nM
koff [3]: 0.4 s⁻¹
kon [3]: 5.08e+08 M⁻¹ s⁻¹
Kd [4]: 5.3 nM
koff [4]: 1.1 s⁻¹
kon [4]: 2.13e+08 M⁻¹ s⁻¹
Kd [5]: 68 nM
koff [5]: 3.3 s⁻¹
kon [5]: 4.9e+07 M⁻¹ s⁻¹
Kd [6]: 290 nM
koff [6]: 3.8 s⁻¹
kon [6]: 1.3e+07 M⁻¹ s⁻¹
Kd [7]: 0.6 nM
koff [7]: 0.3 s⁻¹
kon [7]: 5.38e+08 M⁻¹ s⁻¹
Kd [8]: 1.1 nM
koff [8]: 0.5 s⁻¹
kon [8]: 4.65e+08 M⁻¹ s⁻¹
Kd [9]: 71 nM
koff [9]: 3.6 s⁻¹
kon [9]: 5.1e+07 M⁻¹ s⁻¹
Kd [10]: 4.1 nM
koff [10]: 1.1 s⁻¹
kon [10]: 2.61e+08 M⁻¹ s⁻¹
Kd [11]: 18 µM
koff [11]: 2.3 s⁻¹
kon [11]: 100000 M⁻¹ s⁻¹
Kd [12]: 102 nM
koff [12]: 3.5 s⁻¹
kon [12]: 3.5e+07 M⁻¹ s⁻¹
koff [13]: ≥ 23 s⁻¹
Kd [14]: 0.6 nM
koff [14]: 0.3 s⁻¹
kon [14]: 5.38e+08 M⁻¹ s⁻¹
Kd [15]: 85 nM
koff [15]: 4.2 s⁻¹
kon [15]: 4.9e+07 M⁻¹ s⁻¹
